Measured values as given in patent US20200079847A1 (H LUNDBECK A S, published 2020).
Where two headings read alike, the source gives them in different places.

Assays:
[1] = biological target: T1, Pituitary Adenylate Cyclase-Activating Polypeptide 38 (PACAP38) (Homo sapiens, C-terminal lysine is amidated); test: cell-based or functional assay
T1 peptide: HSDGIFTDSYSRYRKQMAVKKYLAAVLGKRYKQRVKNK

[2] = biological target: T1, Pituitary Adenylate Cyclase-Activating …; test: cell-based or functional assay
[3] = biological target: T2, Pituitary Adenylate Cyclase-Activating Polypeptide 27 (PACAP27) (Homo sapiens, C-terminal leucine is amidated); test: cell-based or functional assay
T2 peptide: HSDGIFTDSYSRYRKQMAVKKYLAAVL

[4] = biological target: T1, Pituitary Adenylate Cyclase-Activating …; test: cell-based or functional assay
[5] = biological target: T1, Pituitary Adenylate Cyclase-Activating …; test: DELFIA TRF cell-surface binding: antibody pre-incubated with PACAP38, complex added to PAC1-R-expressing PC-12 cells, Eu anti-human IgG detection; PACAP38 held on the cell surface is the target
[6] = biological target: T1, Pituitary Adenylate Cyclase-Activating …; test: as above
[7] = biological target: T2, Pituitary Adenylate Cyclase-Activating …; test: SPR, antibody immobilized
Method: (§1) Binding affinities of monoclonal antibodies for human PACAP were estimated using SPR on the PROTEON™ XPR36 (Bio-Rad, Hercules, Calif.). Antibody was immobilized to the surface of general amine coupling (“GLC” or “GLM”) Chips (Bio-Rad, Hercules, Calif.). […] Antigen (ranging from 1.23 nM to 100 nM) was typically run sequentially with association times of 2-4 minutes and dissociation times of 3-120 minutes grouped with the PROTEON™ Manager Software (v3.1.0.6 (Bio-Rad, Hercules, Calif.)) and fitted using a 1:1 Langmuir binding model.

[8] = biological target: T1, Pituitary Adenylate Cyclase-Activating …; test: DELFIA TRF cell-surface binding: antibody pre-incubated with PACAP38, complex added to PAC1-R-expressing PC-12 cells, Eu anti-human IgG detection; PACAP38 held on the cell surface is the target
[9] = biological target: T1, Pituitary Adenylate Cyclase-Activating …; test: as above
[10] = biological target: T1, Pituitary Adenylate Cyclase-Activating …; test: SPR, antibody immobilized
Method: as §1

[11] = biological target: T3, Vasoactive Intestinal Peptide (VIP) (human); test: competitive HTRF: unlabelled VIP (10x) against biotinylated PACAP38 (35 nM) for the titrated antibody
T3 construct: also called human VIP
T3 peptide: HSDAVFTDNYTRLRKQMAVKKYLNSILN
Method: In parallel, 10 μl of an antibody dilution series (highest final concentration of 100 nM) were incubated with 10 μl of N-terminal or C-terminal biotinylated PACAP38 (35 nM final) alone, or in combination with either PACAP27 (350 nM final) or VIP (350 nM final), i.e., 10× PACAP27 or 10×VIP, respectively, in a HTRF plate. 20 μl of Eu³⁺ cryptate labeled anti-hu Fc donor and 20 μl of d2-labeled streptavidin acceptor were added to each well and incubated for 1 hour at room temperature. Fluorescence was measured at 620 and 665 nm with a delay of […].

B1: Ab10.H (antibody, V domains shown)
VH: EVQLVESGGGLVQPGGSLRLSCAASGIDLNSYYMTWVRQAPGKGLEWIGFIDAGGDAYYASWAKGRFTISRDNSKNTVYLQMNSLRAEDTAVYFCARDLDLWGQGTLVTVSS
VL: DAQLTQSPSTLSASVGDRVTITCQSSESVYGNYLAWFQQKPGKAPKFLIYEASKLESGVPSRFSGSGSGTEFTLTISSLQPDDFATYYCAGGDISEGVAFGGGTKVEIKR
IC50, 1 nM PACAP38-induced human VPAC2-R mediated cAMP increase [1]: 988 pM
IC50, 5 nM PACAP38-induced human VPAC1-R mediated cAMP increase [2]: 1340 pM
IC50, 0.1 nM PACAP27-induced PAC1-R mediated cAMP increase [3]: 84 pM
IC50, 0.1 nM PACAP38-induced PAC1-R mediated cAMP increase [4]: 163 pM

B2: Ab3.H (antibody, V domains shown)
VH: EVQLVESGGGLVQPGGSLRLSCAASGFSFSSSDYMCWVRQAPGKGLEWIGCIDAGSSGDTYFASSAKGRFTISRDNSKNTVYLQMNSLRAEDTAVYFCARHLYGSITFAFGLWGQGTLVTVSS
VL: AAQMTQSPSTLSASVGDRVTITCQASQSIGSDLAWYQQKPGKAPKLLIYDASTLASGVPSRFSGSGSGTEFTLTISSLQPDDFATYYCQGTYYSSGWYTAFGGGTKVEIKR
EC50 (read off the curve) [5]: ~3000 pM

B3: Ab4.H (antibody, V domains shown)
VH: EVQLVESGGGLVQPGGSLRLSCAASGFSLSSYDMSWVRQAPGKGLEWIGIINTNDDTWYASWVKGRFTISRDNSKNTLYLQMNSLRAEDTAVYYCARISDAYVFDYAYYFTLWGQGTLVTVSS
VL: DIQMTQSPSTLSASVGDRVTITCLASQNIYNSLAWYQQKPGKAPKLLIYRASTLASGVPSRFSGSGSGTEFTLTISSLQPDDFATYYCQQGAGADNIGNPFGGGTKVEIKR
EC50 (read off the curve) [6]: ~4000 pM
Kd [7]: 31 pM
koff [7]: 1e-05 s⁻¹

B4: Ab5.H (antibody, V domains shown)
VH: EVQLVESGGGLVQPGGSLRLSCAASGFSLSSYAMIWVRQAPGKGLEWVGIIYDNGDTYYASSAKGRFTISRDNSKNTVYLQMNSLRAEDTAVYFCAREPGSTTQNDLWGQGTLVTVSS
VL: DVQMTQSPSTLSASVGDRVTITCQASENIYNSLLWYQQKPGKAPKLLIYRASTLASGVPSRFSGSGSGTEFTLTISSLQPDDFATYYCQNYYNIWTNGAAFGGGTKVEIKR
EC50 (read off the curve) [8]: ~3000 pM

B5: Ab12.H (antibody, V domains shown)
VH: EVQLVESGGGLVQPGGSLRLSCAASGFSLSSYAMGWVRQAPGKGLEWIGDISTYGTTDYASWVYGRFTISRDNSKNTVYLQMNSLRAEDTAVYFCARDYWLSLWGQGTLVTVSS
VL: AAQLTQSPSTLSASVGDRVTITCQSSQSVYDNNALAWYQQKPGKAPKLLIYAASTLASGVPSRFSGSGSGTEFTLTISSLQPDDFATYYCLGGYYDPADNAFGGGTKVEIKR
EC50 (read off the curve) [9]: ~3000 pM
Kd [10]: 26 pM
koff [10]: 1e-05 s⁻¹

B6: Ab3 (antibody, human IgG1, kappa, N297A, V domains shown)
VH: QEQLVESGGGLVQPEGSLTLTCTASGFSFSSSDYMCWVRQAPGKGLEWIGCIDAGSSGDTYFASWAKGRFTISKTSSTTVTLQMTSLTAADTATYFCARHLYGSITFAFGLWGQGTLVTVSS
VL: AAVLTQTPSPVSAAVGGTVTINCQASQSIGSDLAWYQQKPGQPPKLLIYDASTLASGVPSRFSGSGSGTQFTLTISGVQCDDAATYYCQGTYYSSGWYTAFGGGTEVVVKR
notes: full-length antibody, rabbit variable regions on human constant regions
binding result [11]: no binding

B7: Ab9 (antibody, human IgG1, kappa, N297A, V domains shown)
VH: EQSGGGAEGGLVKPGGSLKLSCKASGFTISRDYWICWVRQAPGKGLEWIGCISAGGGSTDYANWVNGRFTLSRDIDQSTGCLQLNSLTDADTAMYYCAGNLEIWGQGTLVTVSS
VL: AQVLTQTPSSVSAAVGGTVTINCQSSPSIYSGAFLSWFQQKPGQPPKFLIYEASKLASGVPSRFSGSGSGTQFTLTISDVQCDDAATYYCLGFYDCSSVDCHAFGGGTEVVVKR
notes: as for B6
binding result [11]: no binding

B8: Ab1 (antibody, human IgG1, kappa, N297A, V domains shown)
VH: QSVEESGGRLVTPGTPLTLTCTVSGFSLSSAVMNWVRQAPGKGLEWIGSIVASGTTYYASWANGRFTISKTSSTTMDLKMTSPTTEDTATYFCARGGGEFFIWGPGTLVTVSS
VL: DPVMTQTPSSTSAAVGGTVTISCQSSESVYSNYLSWYQQKPGQPPNFLIYQASNLASGVPSRFKGSGSGTQFTLTITDLECDDAATYYCAGGYSENIVGFGGGTEVVVKR
notes: as for B6
Kd [7]: ≤ 10 pM
